This series concerns the target human alpha-thrombin (CD samples) (Homo sapiens, UniProt P00734;P00734 328-363;364-622). The experiment in a line: CD thermal denaturation at 295 nm.

Consider one molecule from publication PMC3439905.

With GGTTGGTGTGGTTGG (structured_DNA) [TBA (thrombin-binding aptamer)], the binding result is “binds”.
